According to US20260265385A1 (ANAPTYSBIO, published 2026):

Tests used:
[1] = target: T1, recombinant human IL-2Rβ (extracellular domain, Ala1-Thr215) (human, UniProt P14784 27-240); experiment: SPR
T1 construct: extracellular domain; Analyte in SPR; Ala1-Thr215 is counted on the mature protein; also called human LL-2Rβ; Human IL-2RB
T1 sequence (looked up): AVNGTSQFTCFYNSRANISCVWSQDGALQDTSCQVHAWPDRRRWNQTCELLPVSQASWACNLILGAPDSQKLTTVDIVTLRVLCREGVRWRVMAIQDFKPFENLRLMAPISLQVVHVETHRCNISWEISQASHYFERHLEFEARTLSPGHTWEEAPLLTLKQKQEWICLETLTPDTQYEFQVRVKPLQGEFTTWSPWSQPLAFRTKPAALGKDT

[2] = target: T2, recombinant cynomolgus IL-2Rβ (extracellular domain, Ala1-Thr215) (cynomolgus, UniProt Q38J85 27-240); experiment: SPR
T2 construct: extracellular domain; Analyte in SPR; also called cynomolgus LL-2Rβ; Cyno IL-2RB
T2 sequence (looked up): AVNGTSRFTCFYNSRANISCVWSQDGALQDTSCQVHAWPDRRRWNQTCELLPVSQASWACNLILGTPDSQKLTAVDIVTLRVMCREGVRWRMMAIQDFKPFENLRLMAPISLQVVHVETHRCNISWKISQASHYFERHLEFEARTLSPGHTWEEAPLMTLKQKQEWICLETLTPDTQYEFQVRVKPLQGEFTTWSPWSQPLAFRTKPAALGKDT

[3] = target: T1, recombinant human IL-2Rβ (extracellular …); experiment: SPR, antibody captured on Protein A chip
Procedure, shortened: (§1)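 Antibodies captured on a Protein A chip (0.5 μg/mL, 60 s), then exposed to IL-2Rβ extracellular domain (Ala1-Thr215) at about 0.4–11 nM; 300 s association, 1200 s dissociation. On- and off-rates and KD from a global 1:1 binding fit.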

[4] = target: T2, recombinant cynomolgus IL-2Rβ …; experiment: SPR, antibody captured on Protein A chip
Procedure, shortened: as §1

[5] = target: T3, human IL-2Rβ (CD122), full-length, on cells (human, UniProt P14784 27-551); experiment: flow cytometry on CHO-K1 cells expressing human IL-2Rβ and IL-2Rγ
T3 construct: whole, on cells; also called human IL-2Rβγ; human IL-2βγ
T3 sequence (looked up): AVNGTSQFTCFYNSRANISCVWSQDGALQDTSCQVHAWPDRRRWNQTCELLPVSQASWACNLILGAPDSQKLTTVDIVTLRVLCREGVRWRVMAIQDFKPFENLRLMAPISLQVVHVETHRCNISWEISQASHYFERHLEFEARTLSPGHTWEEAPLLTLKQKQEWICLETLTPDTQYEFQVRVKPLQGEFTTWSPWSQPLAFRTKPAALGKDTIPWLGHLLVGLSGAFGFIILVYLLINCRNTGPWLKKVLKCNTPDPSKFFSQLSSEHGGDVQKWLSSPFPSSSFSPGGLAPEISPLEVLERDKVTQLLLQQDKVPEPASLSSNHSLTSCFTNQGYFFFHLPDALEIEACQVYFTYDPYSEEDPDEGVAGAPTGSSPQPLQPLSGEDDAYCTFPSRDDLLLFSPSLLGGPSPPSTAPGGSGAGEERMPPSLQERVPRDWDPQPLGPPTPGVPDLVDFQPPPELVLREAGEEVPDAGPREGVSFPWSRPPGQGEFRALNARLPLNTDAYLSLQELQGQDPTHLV
Procedure: (§2) CHO-K1 cells stably expressing full-length human or cynomolgus IL-2Rβ and IL-2Rγ cultured in the log phase of growth were harvested with Accutase solution, resuspended in FACS buffer, and plated at 100,000 cells/well in a 96-well plate. The concentrations of antibodies indicated in FIGS. 1 and 2 starting at 100 nM and diluted 1:3 were incubated with the cells for 45 minutes on a plate shaker at 4° C. After washing, the cells were incubated with goat-anti-human kappa DyL650 secondary antibody for 20 minutes on a plate shaker at 4° C. Cells were washed again and analyzed on a FACSArray flow cytometer. Data were analyzed using Novoexpress and GraphPad Prism software. Table 3 lists anti-CD122 chimeric antibody binding characteristics: affinity to human and cyno CD122 protein (KD, measured by SPR assay), ability to block IL-2 (SPR assay), and binding EC50 to cell-expressed human and cyno CD122/CD132 (cell-based receptor binding assay).

[6] = target: T4, cynomolgus IL-2Rβ (CD122), full-length, on cells (cynomolgus, UniProt Q38J85 27-551); experiment: flow cytometry on CHO-K1 cells expressing cynomolgus IL-2Rβ and IL-2Rγ
T4 construct: whole, on cells; Co-expressed with full-length cynomolgus IL-2Rγ on CHO-K1 cells; also called cynomolgus IL-2Rβγ; cyno IL-2βγ
T4 sequence (looked up): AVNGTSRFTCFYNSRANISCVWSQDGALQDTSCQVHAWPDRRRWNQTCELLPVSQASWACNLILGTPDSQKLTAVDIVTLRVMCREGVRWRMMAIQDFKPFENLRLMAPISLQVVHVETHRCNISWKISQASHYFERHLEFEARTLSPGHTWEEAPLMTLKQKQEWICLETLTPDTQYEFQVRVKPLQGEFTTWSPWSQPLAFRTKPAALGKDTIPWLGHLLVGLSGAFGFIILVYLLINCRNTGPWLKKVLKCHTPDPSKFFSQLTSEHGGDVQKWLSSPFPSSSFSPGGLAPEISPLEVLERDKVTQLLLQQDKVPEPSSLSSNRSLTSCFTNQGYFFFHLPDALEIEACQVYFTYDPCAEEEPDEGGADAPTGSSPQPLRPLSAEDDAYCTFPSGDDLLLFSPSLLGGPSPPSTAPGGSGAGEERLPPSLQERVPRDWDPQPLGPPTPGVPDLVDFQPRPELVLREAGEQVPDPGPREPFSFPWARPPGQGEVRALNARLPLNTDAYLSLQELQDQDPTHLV
Procedure: as §2

- Kd [1]: ~0.34 nM
- Kd [2]: ~0.26 nM
- Kd [3]: 0.34 nM
- Kd [4]: 0.26 nM
- EC50 [5]: 0.142 nM
- EC50 [6]: 0.147 nM
B1: APE12383 (antibody, V domains shown)
VH: QVQLQQSGAELMKPGASVKISCKSTGYTFSRYWIEWVKQRPGHGLEWIGEILPGSGSINHNEKFQGKATFTADTSSNTVYMQLSSLTSEDSAVYFCTRHYGSFDYWGQGTTLTVSS
VL: EIVMTQSPKFMSTSVGDRVSVTCKASQNVGTDVAWYQQKPGQSPKALIYSASYRYNGVPDRFTGSGSGTDFTLTISNVQSEDLAEYFCHQYSSYPFTFGSGTKLEIKR
notes: M6-p1625 series; human kappa detected by the secondary antibody; also called APE 12383.03; M6-p1625
